Residue numbers refer to the chain shown, from its start.

Common to all, as to test: cleavage_in_vitro
Data set [1] deals with StyI-WT (Salmonella typhi). The conditions noted are these: NEB4, relative activity 25%.
In data set [2] the test system is StyI-HF K75A (Salmonella typhi). The following applies: NEB4, relative activity 50%.
For data set [3], the system named is T1, BstNI-HF G26T (Bacillus stearothermophilus).
T1 sequence: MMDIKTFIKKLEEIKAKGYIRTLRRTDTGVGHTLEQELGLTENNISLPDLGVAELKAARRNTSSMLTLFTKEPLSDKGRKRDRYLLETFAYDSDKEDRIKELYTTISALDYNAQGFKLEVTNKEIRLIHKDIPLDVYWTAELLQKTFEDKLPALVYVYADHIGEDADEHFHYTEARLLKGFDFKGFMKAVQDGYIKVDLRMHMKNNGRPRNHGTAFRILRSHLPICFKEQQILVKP
The conditions noted are these: NEB4, relative activity 100%.

Data set [4] has as its system T2, KasI-WT (Kluyvera ascorbata).
T2 sequence: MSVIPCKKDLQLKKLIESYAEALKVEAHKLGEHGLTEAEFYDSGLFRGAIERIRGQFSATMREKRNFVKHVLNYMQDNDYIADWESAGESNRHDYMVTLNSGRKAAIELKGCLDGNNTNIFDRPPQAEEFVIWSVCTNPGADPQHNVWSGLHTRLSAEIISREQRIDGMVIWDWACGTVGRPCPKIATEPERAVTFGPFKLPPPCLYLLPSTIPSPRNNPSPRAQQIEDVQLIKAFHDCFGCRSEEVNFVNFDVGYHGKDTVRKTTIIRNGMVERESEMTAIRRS
The conditions noted are these: NEB4, relative activity 100%.

For data set [5], the system named is T3, BstNI-WT (Bacillus stearothermophilus).
T3 sequence: T1 sequence with T26G
The following applies: NEB4, relative activity 50%.

Data set [6] deals with BsrDI-HF (BsrDIA + mutant BsrDIB) Q230A/K363A (BsrDIB) (Bacillus stearothermophilus). The conditions noted are these: NEB4, relative activity 100%.
Data set [7] deals with T4, BsaJI-HF D200A (Bacillus stearothermophilus).
T4 sequence: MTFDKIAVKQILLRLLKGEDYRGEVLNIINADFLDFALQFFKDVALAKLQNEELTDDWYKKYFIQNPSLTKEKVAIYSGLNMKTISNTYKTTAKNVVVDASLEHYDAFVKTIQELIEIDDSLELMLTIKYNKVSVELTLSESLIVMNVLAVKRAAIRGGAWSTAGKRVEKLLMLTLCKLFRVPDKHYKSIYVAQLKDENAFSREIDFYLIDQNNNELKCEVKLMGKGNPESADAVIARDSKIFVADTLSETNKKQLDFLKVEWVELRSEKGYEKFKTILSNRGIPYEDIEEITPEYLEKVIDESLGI
The conditions noted are these: NEB4, relative activity 100%.

Data set [8] has as its system T5, BsrFI-WT (Bacillus stearothermophilus).
T5 sequence: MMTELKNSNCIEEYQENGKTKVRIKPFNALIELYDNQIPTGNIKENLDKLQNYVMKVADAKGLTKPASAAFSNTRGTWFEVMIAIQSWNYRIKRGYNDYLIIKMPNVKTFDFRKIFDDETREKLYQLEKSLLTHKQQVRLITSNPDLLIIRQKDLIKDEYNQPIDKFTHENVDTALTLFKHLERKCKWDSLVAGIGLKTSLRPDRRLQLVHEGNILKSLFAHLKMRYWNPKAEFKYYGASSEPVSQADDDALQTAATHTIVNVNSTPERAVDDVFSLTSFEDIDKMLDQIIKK
The following applies: NEB4, relative activity 50%.

Data set [9] has as its system T6, AatII-WT (Acetobacter aceti).
T6 sequence: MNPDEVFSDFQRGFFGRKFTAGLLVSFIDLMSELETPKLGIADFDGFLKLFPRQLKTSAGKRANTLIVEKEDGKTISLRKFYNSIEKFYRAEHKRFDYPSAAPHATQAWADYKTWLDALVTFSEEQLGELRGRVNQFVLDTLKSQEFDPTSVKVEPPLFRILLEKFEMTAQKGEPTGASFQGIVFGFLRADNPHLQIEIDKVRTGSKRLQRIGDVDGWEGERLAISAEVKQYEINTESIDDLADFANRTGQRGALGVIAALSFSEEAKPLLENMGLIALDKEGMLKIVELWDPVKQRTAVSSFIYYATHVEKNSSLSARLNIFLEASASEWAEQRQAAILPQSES
The conditions noted are these: NEB4, relative activity 50%.

Data set [10] has as its system T7, BsaJI-WT (Bacillus stearothermophilus).
T7 sequence: T4 sequence with A200D
The conditions noted are these: NEB4, relative activity 100%.

Data set [11] relates to BsrDI-WT (BsrDIA + BsrDIB) (Bacillus stearothermophilus). The conditions noted are these: NEB4, relative activity 25%.
The subject of data set [12] is T8, KasI-HF N251A (Kluyvera ascorbata).
T8 sequence: T2 sequence with N251A
The following applies: NEB4, relative activity 100%.

Data set [13] concerns T9, AatII-HF N235A (Acetobacter aceti).
T9 sequence: T6 sequence with N235A
The following applies: NEB4, relative activity 100%; Table 1 lists pXba.

The target in data set [14] is KpnI-WT (Klebsiella pneumoniae) (UniProt P25237). The following applies: NEB4, relative activity 50%.
Data set [15] deals with KpnI-HF D16N/D148E (Klebsiella pneumoniae) (UniProt P25237). The following applies: NEB4, relative activity 100%.

For the substance lambda DNA, StyI sites, the activity (fidelity index) came out at 16 in data set [1] and 4000 in [2].
As to pBR322 plasmid, the activity (fidelity index) is 500 in data set [3]; 4 in [4]; 4 in data set [5]; greater than 1000 in data set [6]; greater than 4000 in [7]; 16 in data set [8]. The activity (fidelity index) in data set [9] was 16; in data set [10], 64; in data set [11], 0.5; in data set [12], greater than 16000; in data set [13] it was greater than 1000.
Consider pXba plasmid, KpnI sites, for which the activity (fidelity index) in data set [14] is 4; in data set [15], greater than 1e+06.

These data come from patent US20110151450.
